T1: G9a and GLP (Homo sapiens, UniProt Q96KQ7+Q9H9B1)
T1 sequence (Q96KQ7 2-1210 limits assumed): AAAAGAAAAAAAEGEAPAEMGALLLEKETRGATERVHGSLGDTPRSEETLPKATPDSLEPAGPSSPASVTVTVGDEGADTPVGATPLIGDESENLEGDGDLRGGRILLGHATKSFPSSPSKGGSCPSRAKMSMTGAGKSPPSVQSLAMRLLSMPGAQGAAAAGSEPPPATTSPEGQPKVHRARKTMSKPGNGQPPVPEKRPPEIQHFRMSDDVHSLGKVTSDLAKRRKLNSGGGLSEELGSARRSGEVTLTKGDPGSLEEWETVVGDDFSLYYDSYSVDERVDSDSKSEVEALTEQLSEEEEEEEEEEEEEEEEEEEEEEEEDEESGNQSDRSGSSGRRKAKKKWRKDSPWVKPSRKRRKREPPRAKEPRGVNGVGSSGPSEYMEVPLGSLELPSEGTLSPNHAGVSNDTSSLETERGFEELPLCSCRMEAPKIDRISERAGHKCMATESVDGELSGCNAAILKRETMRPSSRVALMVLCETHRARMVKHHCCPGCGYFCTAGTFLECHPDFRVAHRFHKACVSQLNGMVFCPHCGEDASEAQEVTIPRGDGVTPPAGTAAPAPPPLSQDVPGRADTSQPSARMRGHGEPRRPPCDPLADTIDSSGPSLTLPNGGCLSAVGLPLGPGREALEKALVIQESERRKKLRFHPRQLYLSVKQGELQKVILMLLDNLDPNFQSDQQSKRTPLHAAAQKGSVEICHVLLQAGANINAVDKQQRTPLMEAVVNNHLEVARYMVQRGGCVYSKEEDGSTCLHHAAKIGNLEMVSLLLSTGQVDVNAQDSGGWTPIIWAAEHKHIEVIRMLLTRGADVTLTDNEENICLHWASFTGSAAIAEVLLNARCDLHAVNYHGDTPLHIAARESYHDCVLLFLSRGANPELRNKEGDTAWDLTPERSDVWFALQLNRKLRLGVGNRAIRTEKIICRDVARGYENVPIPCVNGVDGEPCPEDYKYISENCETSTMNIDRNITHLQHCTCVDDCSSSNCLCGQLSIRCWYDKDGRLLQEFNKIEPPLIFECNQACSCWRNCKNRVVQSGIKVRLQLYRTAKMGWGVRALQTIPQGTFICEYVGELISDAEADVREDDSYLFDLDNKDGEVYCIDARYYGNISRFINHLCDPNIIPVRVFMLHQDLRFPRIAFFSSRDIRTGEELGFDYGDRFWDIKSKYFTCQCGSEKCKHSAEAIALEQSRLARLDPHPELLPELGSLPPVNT
T1 sequence (Q9H9B1 2-1298 limits assumed): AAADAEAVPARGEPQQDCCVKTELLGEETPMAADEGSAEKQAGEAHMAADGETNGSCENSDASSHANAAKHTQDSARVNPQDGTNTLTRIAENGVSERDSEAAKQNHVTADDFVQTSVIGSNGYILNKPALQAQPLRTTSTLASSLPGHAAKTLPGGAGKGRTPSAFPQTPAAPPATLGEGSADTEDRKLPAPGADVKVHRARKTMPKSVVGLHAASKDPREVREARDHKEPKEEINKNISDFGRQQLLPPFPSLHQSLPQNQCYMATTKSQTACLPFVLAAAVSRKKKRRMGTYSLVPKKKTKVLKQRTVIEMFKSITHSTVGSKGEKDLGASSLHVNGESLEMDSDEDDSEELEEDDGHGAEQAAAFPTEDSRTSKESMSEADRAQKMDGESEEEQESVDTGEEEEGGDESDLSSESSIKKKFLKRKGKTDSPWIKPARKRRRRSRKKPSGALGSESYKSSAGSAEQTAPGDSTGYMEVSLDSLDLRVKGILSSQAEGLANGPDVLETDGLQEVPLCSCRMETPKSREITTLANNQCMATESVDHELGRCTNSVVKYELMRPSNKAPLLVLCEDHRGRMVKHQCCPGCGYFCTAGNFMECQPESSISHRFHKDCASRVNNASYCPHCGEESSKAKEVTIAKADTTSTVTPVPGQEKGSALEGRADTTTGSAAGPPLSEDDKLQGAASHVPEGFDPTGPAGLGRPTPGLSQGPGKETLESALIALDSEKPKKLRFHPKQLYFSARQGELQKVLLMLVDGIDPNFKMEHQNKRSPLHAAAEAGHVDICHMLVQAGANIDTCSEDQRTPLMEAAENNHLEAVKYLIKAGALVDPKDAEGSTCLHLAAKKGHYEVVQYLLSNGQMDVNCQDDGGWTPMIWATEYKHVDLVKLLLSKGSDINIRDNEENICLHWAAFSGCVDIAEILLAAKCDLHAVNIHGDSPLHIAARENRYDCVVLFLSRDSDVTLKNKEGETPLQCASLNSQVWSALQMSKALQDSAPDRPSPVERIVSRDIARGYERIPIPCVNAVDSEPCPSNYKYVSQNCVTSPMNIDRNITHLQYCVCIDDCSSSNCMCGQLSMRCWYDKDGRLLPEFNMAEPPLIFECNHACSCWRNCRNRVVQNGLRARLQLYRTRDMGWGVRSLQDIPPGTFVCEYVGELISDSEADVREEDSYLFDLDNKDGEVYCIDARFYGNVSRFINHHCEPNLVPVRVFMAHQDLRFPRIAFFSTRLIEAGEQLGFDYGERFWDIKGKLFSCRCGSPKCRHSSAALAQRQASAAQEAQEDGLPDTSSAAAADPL

B1: Cytoplasmic FMR1-interacting protein 1 (protein, UniProt Q7L576 1-1253, looked up)
Cytoplasmic FMR1-interacting …: MAAQVTLEDALSNVDLLEELPLPDQQPCIEPPPSSLLYQPNFNTNFEDRNAFVTGIARYIEQATVHSSMNEMLEEGQEYAVMLYTWRSCSRAIPQVKCNEQPNRVEIYEKTVEVLEPEVTKLMNFMYFQRNAIERFCGEVRRLCHAERRKDFVSEAYLITLGKFINMFAVLDELKNMKCSVKNDHSAYKRAAQFLRKMADPQSIQESQNLSMFLANHNKITQSLQQQLEVISGYEELLADIVNLCVDYYENRMYLTPSEKHMLLKVMGFGLYLMDGSVSNIYKLDAKKRINLSKIDKYFKQLQVVPLFGDMQIELARYIKTSAHYEENKSRWTCTSSGSSPQYNICEQMIQIREDHMRFISELARYSNSEVVTGSGRQEAQKTDAEYRKLFDLALQGLQLLSQWSAHVMEVYSWKLVHPTDKYSNKDCPDSAEEYERATRYNYTSEEKFALVEVIAMIKGLQVLMGRMESVFNHAIRHTVYAALQDFSQVTLREPLRQAIKKKKNVIQSVLQAIRKTVCDWETGHEPFNDPALRGEKDPKSGFDIKVPRRAVGPSSTQLYMVRTMLESLIADKSGSKKTLRSSLEGPTILDIEKFHRESFFYTHLINFSETLQQCCDLSQLWFREFFLELTMGRRIQFPIEMSMPWILTDHILETKEASMMEYVLYSLDLYNDSAHYALTRFNKQFLYDEIEAEVNLCFDQFVYKLADQIFAYYKVMAGSLLLDKRLRSECKNQGATIHLPPSNRYETLLKQRHVQLLGRSIDLNRLITQRVSAAMYKSLELAIGRFESEDLTSIVELDGLLEINRMTHKLLSRYLTLDGFDAMFREANHNVSAPYGRITLHVFWELNYDFLPNYCYNGSTNRFVRTVLPFSQEFQRDKQPNAQPQYLHGSKALNLAYSSIYGSYRNFVGPPHFQVICRLLGYQGIAVVMEELLKVVKSLLQGTILQYVKTLMEVMPKICRLPRHEYGSPGILEFFHHQLKDIVEYAELKTVCFQNLREVGNAILFCLLIEQSLSLEEVCDLLHAAPFQNILPRVHVKEGERLDAKMKRLESKYAPLHLVPLIERLGTPQQIAIAREGDLLTKERLCCGLSMFEVILTRIRSFLDDPIWRGPLPSNGVMHVDECVEFHRLWSAMQFVYCIPVGTHEFTVEQCFGDGLHWAGCMIIVLLGQQRRFAVLDFCYHLLKVQKHDGKDEIIKNVPLKKMVERIRKFQILNDEIITILDKYLKSGDGEGTPVEHVRCFQPPIHQSLASS
B2: Probable ATP-dependent RNA helicase DDX23 (protein, UniProt Q9BUQ8 1-820, looked up)
Probable ATP-dependent RNA …: MAGELADKKDRDASPSKEERKRSRTPDRERDRDRDRKSSPSKDRKRHRSRDRRRGGSRSRSRSRSKSAERERRHKERERDKERDRNKKDRDRDKDGHRRDKDRKRSSLSPGRGKDFKSRKDRDSKKDEEDEHGDKKPKAQPLSLEELLAKKKAEEEAEAKPKFLSKAEREAEALKRRQQEVEERQRMLEEERKKRKQFQDLGRKMLEDPQERERRERRERMERETNGNEDEEGRQKIREEKDKSKELHAIKERYLGGIKKRRRTRHLNDRKFVFEWDASEDTSIDYNPLYKERHQVQLLGRGFIAGIDLKQQKREQSRFYGDLMEKRRTLEEKEQEEARLRKLRKKEAKQRWDDRHWSQKKLDEMTDRDWRIFREDYSITTKGGKIPNPIRSWKDSSLPPHILEVIDKCGYKEPTPIQRQAIPIGLQNRDIIGVAETGSGKTAAFLIPLLVWITTLPKIDRIEESDQGPYAIILAPTRELAQQIEEETIKFGKPLGIRTVAVIGGISREDQGFRLRMGCEIVIATPGRLIDVLENRYLVLSRCTYVVLDEADRMIDMGFEPDVQKILEHMPVSNQKPDTDEAEDPEKMLANFESGKHKYRQTVMFTATMPPAVERLARSYLRRPAVVYIGSAGKPHERVEQKVFLMSESEKRKKLLAILEQGFDPPIIIFVNQKKGCDVLAKSLEKMGYNACTLHGGKGQEQREFALSNLKAGAKDILVATDVAGRGIDIQDVSMVVNYDMAKNIEDYIHRIGRTGRAGKSGVAITFLTKEDSAVFYELKQAILESPVSSCPPELANHPDAQHKPGTILTKKRREETIFA
B3: Probable ATP-dependent RNA helicase DDX46 (protein, UniProt Q7L014 2-1031, looked up)
Probable ATP-dependent RNA …: GRESRHYRKRSASRGRSGSRSRSRSPSDKRSKRGDDRRSRSRDRDRRRERSRSRDKRRSRSRDRKRLRRSRSRERDRSRERRRSRSRDRRRSRSRSRGRRSRSSSPGNKSKKTENRSRSKEKTDGGESSKEKKKDKDDKEDEKEKDAGNFDQNKLEEEMRKRKERVEKWREEQRKKAMENIGELKKEIEEMKQGKKWSLEDDDDDEDDPAEAEKEGNEMEGEELDPLDAYMEEVKEEVKKFNMRSVKGGGGNEKKSGPTVTKVVTVVTTKKAVVDSDKKKGELMENDQDAMEYSSEEEEVDLQTALTGYQTKQRKLLEPVDHGKIEYEPFRKNFYVEVPELAKMSQEEVNVFRLEMEGITVKGKGCPKPIKSWVQCGISMKILNSLKKHGYEKPTPIQTQAIPAIMSGRDLIGIAKTGSGKTIAFLLPMFRHIMDQRSLEEGEGPIAVIMTPTRELALQITKECKKFSKTLGLRVVCVYGGTGISEQIAELKRGAEIIVCTPGRMIDMLAANSGRVTNLRRVTYVVLDEADRMFDMGFEPQVMRIVDNVRPDRQTVMFSATFPRAMEALARRILSKPIEVQVGGRSVVCSDVEQQVIVIEEEKKFLKLLELLGHYQESGSVIIFVDKQEHADGLLKDLMRASYPCMSLHGGIDQYDRDSIINDFKNGTCKLLVATSVAARGLDVKHLILVVNYSCPNHYEDYVHRAGRTGRAGNKGYAYTFITEDQARYAGDIIKALELSGTAVPPDLEKLWSDFKDQQKAEGKIIKKSSGFSGKGFKFDETEQALANERKKLQKAALGLQDSDDEDAAVDIDEQIESMFNSKKRVKDMAAPGTSSVPAPTAGNAEKLEIAKRLALRINAQKNLGIESQDVMQQATNAILRGGTILAPTVSAKTIAEQLAEKINAKLNYVPLEKQEEERQDGGQNESFKRYEEELEINDFPQTARWKVTSKEALQRISEYSEAAITIRGTYFPPGKEPKEGERKIYLAIESANELAVQKAKAEITRLIKEELIRLQNSYQPTNKGRYKVL
B4: Protein syndesmos (protein, UniProt Q9BRJ7 1-211, looked up)
Tudor-interacting repair …: MSTAAVPELKQISRVEAMRLGPGWSHSCHAMLYAANPGQLFGRIPMRFSVLMQMRFDGLLGFPGGFVDRRFWSLEDGLNRVLGLGLGCLRLTEADYLSSHLTEGPHRVVAHLYARQLTLEQLHAVEISAVHSRDHGLEVLGLVRVPLYTQKDRVGGFPNFLSNAFVSTAKCQLLFALKVLNMMPEEKLVEALAAATEKQKKALEKLLPASS

system: 3×MBT domain of L3MBTL1; test: Triple SILAC pull-down, 3xMBT/3xMBTD355N ratio (cytoplasmic, nuclear and chromatin fractions of 293T cells); assay type: binding, human; settings: SILAC ratio, pull-down by 3xMBT vs 3xMBTD355N, 293T cells;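 also: proteins quantified with MaxQuant, requiring at least two unique peptides and quantification in both label directions, normalized to the mean of proteins from a digested loading control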
Description: For stable isotope labeling by amino acids in cell culture (SILAC) experiments HEK 293T cells were grown for at least six doublings in DMEM for SILAC supplemented with 10% dialyzed fetal bovine serum (FBS), 230 mg/L L-proline and either 100 mg/L each of L-lysine and L-arginine (“light” medium), D4-L-lysine and ^13C6-L-arginine (“medium” media), or ^13C6^15N2-L-lysine and ^13C6^15N4-L-arginine (Thermo Scientific). Heavy methyl labeling used DMEM without L-Methionine or L-Cysteine supplemented with D3^13C-L-Methionine (Sigma), L-Cysteine (Sigma) and 10% dialyzed FBS.
For UNC0638 treatments cells were treated for 24 hours with UNC0638 at 2.5 μM or DMSO vehicle control. One experiment treated cells in light media with UNC0638, the other treated cells in heavy media. Both experiments included cells in medium media treated with DMSO for negative control pull-down with 3×MBTD355N.
UNC0638 treatment experiments used a Q-Exactive mass spectrometer (ThermoFisher Scientific). A 25 cm HPLC column with 3 μm Reliasil (Orochem) was used to separate peptides over a 4 hour gradient from 0 to 75% acetonitrile. Ions were generated using a custom nanospray source flowing at 250 nL/minute. Mass spectrometry settings were 70,000 MS1 resolution, data dependent selection of up to 20 precursor ions per cycle, dynamic exclusion of 30 seconds and isolation window of 2 m/z. The nuclear fraction from the experiment using UNC0638 on cells in heavy media was additionally analyzed by 2D HPLC-MS/MS as described earlier.
Peptides were identified and quantified using MaxQuant version 1.2.2.5 (Cox and Mann, supra) with the following changes to default settings: mono- and di-methylation of lysine, and oxidation of methionine, and N-terminal acetylation as variable modifications, disabled “I=L”, up to three modifications per peptide, one missed cleavage, maximum charge of 5. Protein and peptide FDR were set to 1%, and proteins were filtered post-hoc for at least two unique peptides. Proteins were excluded from an experiment if they were not quantified in both labeling directions. Because FDR is unreliable for small numbers of peptides the modification site FDR was set to 10% and all methylated peptides were manually verified. […] Quantitative protein data was normalized to the mean value among proteins identified by analyzing 50 ng of digested loading control.
For UNC0638 experiments the treated vs. untreated ratio was determined by subtracting the value from 3×MBTD355N prior to dividing values from the light and heavy channels. Only proteins showing a two-fold signal to background ratio (3×MBT/3×MBTD355N) were evaluated as potential G9a/GLP substrates.

Molecule | Protein Ratios 3xMBT/D355N
B1 | 3.4
B2 | 4.8
B3 | 5.2
B4 | 3.5

target: T1, G9a and GLP; test: Triple SILAC pull-down after UNC0638 treatment of 293T cells, DMSO/UNC0638 ratio of protein captured by 3×MBT; assay type: cell-based; set-up: cells were treated for 24 hours with UNC0638 at 2.5 μM or DMSO vehicle control; endogenous in cells; host or cells: HEK 293T; settings: SILAC ratio of protein captured by 3xMBT, 293T cells treated 24 hours with UNC0638 at 2.5 μM or DMSO;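 also: mass spectrometry (Q-Exactive) SILAC quantitation, DMSO/UNC0638 ratio computed after subtracting 3×MBTD355N mutant pull-down background, only proteins with at least twofold 3×MBT over mutant signal considered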

Molecule | Protein Ratios DMSO/UNC0638
B1 | 1.4
B2 | 1.3
B3 | 1.4
B4 | 1.3

From US20140274782A1, “AFFINITY REAGENTS AND METHODS FOR DETECTION, PURIFICATION, AND PROTEOMIC ANALYSIS OF METHYLATED PROTEINS” (The Board of Trustees of the Leland Stanford Junior …, priority 2013, published 2014)
